Experimental findings from patent US20170008962A1 (Dana-Farber, published 2017) are described below.

Experiment [1] deals with T1, soluble, recombinant MICB with a single BirA biotinylation site (human, UniProt Q29980 23-309).
T1 sequence (looked up): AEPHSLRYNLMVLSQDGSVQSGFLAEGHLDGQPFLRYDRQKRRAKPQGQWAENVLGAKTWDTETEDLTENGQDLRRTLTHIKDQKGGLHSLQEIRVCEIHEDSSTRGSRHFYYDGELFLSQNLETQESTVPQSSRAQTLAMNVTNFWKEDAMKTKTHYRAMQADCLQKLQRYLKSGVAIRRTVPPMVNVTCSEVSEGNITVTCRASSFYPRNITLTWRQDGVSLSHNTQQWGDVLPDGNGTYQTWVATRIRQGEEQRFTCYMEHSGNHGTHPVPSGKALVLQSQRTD
Kind of experiment: cytometric bead assay, biotinylated protein on streptavidin beads, FITC anti-human IgG.

A further experiment concerns the target T2, Ang-like-3 (human, UniProt Q9Y5C1 17-460).
T2 sequence (looked up): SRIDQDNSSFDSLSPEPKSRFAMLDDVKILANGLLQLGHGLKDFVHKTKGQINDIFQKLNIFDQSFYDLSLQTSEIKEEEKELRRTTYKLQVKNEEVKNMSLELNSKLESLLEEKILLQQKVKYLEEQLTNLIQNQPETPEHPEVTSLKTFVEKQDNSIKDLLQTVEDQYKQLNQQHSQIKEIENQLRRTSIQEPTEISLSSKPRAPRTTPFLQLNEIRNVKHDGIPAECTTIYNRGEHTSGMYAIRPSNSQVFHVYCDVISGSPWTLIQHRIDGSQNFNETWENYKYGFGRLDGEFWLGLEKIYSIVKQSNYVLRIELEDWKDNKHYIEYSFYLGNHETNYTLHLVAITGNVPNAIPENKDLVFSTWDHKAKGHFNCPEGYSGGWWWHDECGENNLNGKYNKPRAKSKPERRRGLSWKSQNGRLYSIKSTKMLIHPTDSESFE
Kind of experiment: ELISA, protein coated on plate, anti-human IgG-Europium.

Experiment [2] has as its target T3, recombinant human angiopoietin-1 (human, UniProt Q15389 20-498).
T3 construct: also called Ang-1
T3 sequence (looked up): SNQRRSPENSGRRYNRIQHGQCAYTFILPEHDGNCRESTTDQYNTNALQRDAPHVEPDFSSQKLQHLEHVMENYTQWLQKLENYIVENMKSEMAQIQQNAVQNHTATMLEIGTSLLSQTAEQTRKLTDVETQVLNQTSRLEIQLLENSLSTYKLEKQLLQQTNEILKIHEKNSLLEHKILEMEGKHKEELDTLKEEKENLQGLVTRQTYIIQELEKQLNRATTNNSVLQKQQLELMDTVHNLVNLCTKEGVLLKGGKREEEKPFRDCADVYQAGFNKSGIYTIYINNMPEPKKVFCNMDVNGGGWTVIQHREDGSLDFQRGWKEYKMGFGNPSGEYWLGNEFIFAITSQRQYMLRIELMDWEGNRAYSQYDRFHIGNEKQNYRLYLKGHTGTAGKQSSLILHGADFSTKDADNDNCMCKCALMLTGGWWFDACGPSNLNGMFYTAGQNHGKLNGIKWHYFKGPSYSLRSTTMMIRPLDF
The experiment in a line: ELISA, angiopoietin coated at 4 µg/mL, antibody 20 µg/mL-0.16 µg/mL, anti-human IgG-Europium.

For experiment [3], the target named is T4, recombinant human angiopoietin-2 (human, UniProt O15123 19-496).
T4 construct: also called Ang-2
T4 sequence (looked up): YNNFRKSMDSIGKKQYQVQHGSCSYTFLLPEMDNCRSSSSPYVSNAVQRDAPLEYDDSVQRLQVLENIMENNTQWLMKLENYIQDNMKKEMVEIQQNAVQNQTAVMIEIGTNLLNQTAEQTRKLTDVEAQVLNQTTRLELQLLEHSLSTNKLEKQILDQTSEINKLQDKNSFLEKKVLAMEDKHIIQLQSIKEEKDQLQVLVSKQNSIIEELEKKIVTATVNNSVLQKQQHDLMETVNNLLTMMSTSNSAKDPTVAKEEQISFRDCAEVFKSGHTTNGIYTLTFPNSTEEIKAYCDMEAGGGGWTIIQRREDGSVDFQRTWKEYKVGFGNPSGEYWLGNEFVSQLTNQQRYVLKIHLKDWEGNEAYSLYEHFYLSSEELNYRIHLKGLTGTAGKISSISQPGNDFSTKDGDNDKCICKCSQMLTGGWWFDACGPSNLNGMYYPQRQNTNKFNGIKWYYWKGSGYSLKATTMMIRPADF
The experiment is described as above.

Experiment [4] deals with T5, recombinant human angiopoietin-4 (human, UniProt Q9Y264 25-503).
T5 construct: also called Ang-4; Ang4
T5 sequence (looked up): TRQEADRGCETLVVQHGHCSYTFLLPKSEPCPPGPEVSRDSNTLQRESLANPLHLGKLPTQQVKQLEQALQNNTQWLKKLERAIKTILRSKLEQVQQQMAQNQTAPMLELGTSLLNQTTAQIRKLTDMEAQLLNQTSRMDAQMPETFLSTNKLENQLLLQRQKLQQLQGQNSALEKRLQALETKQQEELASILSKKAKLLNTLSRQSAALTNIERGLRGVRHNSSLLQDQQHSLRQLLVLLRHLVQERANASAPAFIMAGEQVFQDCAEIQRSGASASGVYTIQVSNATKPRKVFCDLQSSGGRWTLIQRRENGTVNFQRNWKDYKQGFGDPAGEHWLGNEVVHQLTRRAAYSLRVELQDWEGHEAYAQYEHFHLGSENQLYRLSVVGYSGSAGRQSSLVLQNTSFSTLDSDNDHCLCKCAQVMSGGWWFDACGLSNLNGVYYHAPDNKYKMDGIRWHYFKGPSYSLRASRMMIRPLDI
The description is as above.

Experiment [5] concerns the target T3, recombinant human angiopoietin-1. The experiment in a line: ELISA, protein coated at 4 µg/ml, antibody at 20, 4, 0.8 and 0.16 µg/ml, europium conjugated anti-human IgG.
Experiment [6] concerns the target T4, recombinant human angiopoietin-2. The experiment is described as above.
Experiment [7] addresses T5, recombinant human angiopoietin-4. The experiment is described as above.

B1: CM24002 Ab4 (anti-MICA antibody ID-7 of Table 1) (antibody, V domains shown)
VH: QVQLQESGPGLVKPSGTLSLTCAVSGASITNGAWWSWVRQPPGKGLEWIGEIYLNGNTNSNPSLKSRVIISVDKSKNHFSLTLNSVTAADTAVYYCAKNAAYNLEFWGQGALVTVSS
VL: EIVLTQSPGTLSLSPGERATLSCRASQTVSSPYVAWYQQKRGQAPRLLIYGASTRATGIPDRFSGSGSGTDFTLTISRLEPEDFAVYYCQQYDRSYYYTFGQGTKLEIK
Turning to B1, in experiment [1], the binding result is listed as “binds”.

B2: CM33322 Ab11 (anti-MICA antibody ID-8 of Table 1) (antibody, V domains shown)
VH: QVQLQESGPGLVKPSENLSLTCTVSDASMSDYHWSWIRQAAGKGLEWIGRMYSTGSPYYKPSLKGRVTMSIDTSKNQFSLKLASVTAADTAIYYCASGQHIGGWVPPDFWGQGTLVTVSS
VL: DIVMTQTPLSSPVTLGQPASISCRSSEGLVYSDGDTYLSWFHQRPGQPPRLLIYKISNRFSGVPDRFSGSGAGTDFTLKISRVEAEDVGVYYCMQATHFPWTFGQGTKVEVKR
In the case of B2, in experiment [1], the binding result is reported as “binds”.

B3: antibody ID 3 (anti-angiopoietin-2 antibody) (antibody, V domains shown)
VH: EVQLVESGGGLVQPGGSLRLSCAASGFTFSNNWMHWVRQAPGKGLEWISEIRSDGNFTRYADSMKGRFTISRDNAKSTLYLQMNSLRVEDTGLYYCARDYPYSIDYWGQGTLVTVSS
VL: DIVMTQTPLSSPVTLGQPASISCTSSQSLVHSNGNTYLSWLQQRPGQPPRLLIYEISKRVSGVPDRFSGSGAGTDFTLKISRVEAEDVGVYYCMQGKQLRTFGQGTKLEIK
As to B3, the binding result with Ang-like-3 was “no binding (tested: 20 µg/mL-0.16 µg/mL)”; in experiment [2], “binds”; in experiment [3], “binds”; in experiment [4] it was “binds”.

B4: antibody ID 4 (anti-angiopoietin-2 antibody) (antibody, V domains shown)
VH: EVQLVESGGGLVQPGGSVRLSCAASGFILSNFAMSWVRQAPGKGLDWVSGNFGGRENTYYADSVKGRFTISRDSSKSTLYLQMNNLRAEDTAVYYCARGDYHGSGAHFDYWGQGILVTVSS
VL: DIVMTQSPLSSPVILGQPASISCRSSQSLLHSDGNTYLSWLHQRPGQPPRLLIYQISNRFSGVPDRFSGSGTGTDFTLKISRVEAEDAGIYYCMQGTEFPRTFGQGTKVEIK
In the case of B4, the binding result is on record as “no binding (tested: 20 µg/mL-0.16 µg/mL)” with Ang-like-3, “binds” in experiment [2], “binds” in experiment [3] and “binds” in experiment [4].

B5: anti-Ang2 Ab6 (antibody ID-10 of Table 1, anti-angiopoietin-2 antibody) (antibody, V domains shown)
VH: EVQLVESGGGLIQPGGSLRLSCAASGFLISSYFMSWVRQAPGKGPEWVSVIYSDGSTYYVDSVKGRFTISTDNSKNTLYLQMNSLRAEDTARYYCATRHLNYDGDHWGQGTLVTVSS
VL: DVVMTQSPLSLPVTLGQPASISCRSSQSLVHSDGNTYLNWFHQRPGQSPRRLIYKVSKRDSGVPDRFSGSGSGSDFTLKISRVEAEDVGIYYCMQGTHWPTFGQGTKVEIKR
notes: also called anti-Ang6 Ab2
In the case of B5, the binding result in experiment [5], in experiment [6] and in experiment [7] was “binds” each time.

B6: antibody ID 5 (anti-angiopoietin-2 antibody) (antibody, V domains shown)
VH: EVQLVESGGGLIQPGGSLRLSCATSGFTFRTSSMSWVRRAPGKGLEWVSAIGAESHDTHYTDSAEGRFTISKDYSKNTVYLQMNGLRVDDTAIYYCAHHYYYGSRQKPKDWGDAFDMWGQGTMVSVSS
VL: DIQMTQSPSSVSASVGDRVTITCRASQDISTWLTWYQQRAGKAPNLLIYGASTLEDGVPSRFSGSGSGTDFTLTIDSLQPDDFATYYCQQSHSFPYTFGQGTQLGIS
As for B6, the binding result is given as “no binding (tested: 20 µg/mL-0.16 µg/mL)” with Ang-like-3, “binds” in experiment [2], “binds” in experiment [3] and “binds” in experiment [4].

B7: antibody ID 2 (anti-angiopoietin-2 antibody) (antibody, V domains shown)
VH: EVQLVESGGGLVQPGGSLRLSCAASGFTFSSYAMSWVRQAPGKGLEWVSGIYWSGGSTYYADSVKGRFTISRDISKNTLYLQMNSLRADDTAVYYCARGDYYGSGAHFDYWGQGTLVTVSS
VL: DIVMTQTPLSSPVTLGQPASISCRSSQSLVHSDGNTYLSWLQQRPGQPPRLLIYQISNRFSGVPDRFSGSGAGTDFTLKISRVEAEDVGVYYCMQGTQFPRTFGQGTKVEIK
Take B7: the binding result in the experiment with Ang-like-3 is listed as “no binding (tested: 20 µg/mL-0.16 µg/mL)”; in experiment [2], “binds”; in experiment [3] it was “binds”; in experiment [4] it was “binds”.

B8: CM24002 Ab2 (anti-MICA antibody ID-6 of Table 1) (antibody, V domains shown)
VH: QVQLQESGPGLVEPSGTLSLTCTVSGGSISRSNWWSWVRQPPGEGLEWIGEIHHIGRSSYNPSLKSRVTMSVDKSQNQFSLRLTSVTAADTAVYYCAKNGYYAMDVWGQGTTVTVSS
VL: EIVLTQSPGTLSLSPGERATLSCRASQSVSSDFLAWYQQKPGQAPRLLIYATSFRATGISDRFSGSGSGTDFSLTINRLEPEDFAVYYCQHYRSSPPWYTFAQGTKLDMRRTVAAPSV
Take B8: in experiment [1], the binding result was “binds”.
